Tests used:
[1] = target: T1, recombinant protein made of the entire extracellular domain of mouse P-selectin fused to the Fc fragment of … (mouse; human, UniProt Q01102 42-709); test: cell adhesion assay: calcein-labelled cells of wild-type and knock-out mice on wells coated with the fusion protein
T1 construct: extracellular domain; Bought from R&D Systems and adsorbed to polystyrene wells at 3 ug/ml; also called muPsel-IgG1Fc; muP-selectin-IgG1Fc; not shown: Fc fragment of human IgG1
T1 sequence (looked up): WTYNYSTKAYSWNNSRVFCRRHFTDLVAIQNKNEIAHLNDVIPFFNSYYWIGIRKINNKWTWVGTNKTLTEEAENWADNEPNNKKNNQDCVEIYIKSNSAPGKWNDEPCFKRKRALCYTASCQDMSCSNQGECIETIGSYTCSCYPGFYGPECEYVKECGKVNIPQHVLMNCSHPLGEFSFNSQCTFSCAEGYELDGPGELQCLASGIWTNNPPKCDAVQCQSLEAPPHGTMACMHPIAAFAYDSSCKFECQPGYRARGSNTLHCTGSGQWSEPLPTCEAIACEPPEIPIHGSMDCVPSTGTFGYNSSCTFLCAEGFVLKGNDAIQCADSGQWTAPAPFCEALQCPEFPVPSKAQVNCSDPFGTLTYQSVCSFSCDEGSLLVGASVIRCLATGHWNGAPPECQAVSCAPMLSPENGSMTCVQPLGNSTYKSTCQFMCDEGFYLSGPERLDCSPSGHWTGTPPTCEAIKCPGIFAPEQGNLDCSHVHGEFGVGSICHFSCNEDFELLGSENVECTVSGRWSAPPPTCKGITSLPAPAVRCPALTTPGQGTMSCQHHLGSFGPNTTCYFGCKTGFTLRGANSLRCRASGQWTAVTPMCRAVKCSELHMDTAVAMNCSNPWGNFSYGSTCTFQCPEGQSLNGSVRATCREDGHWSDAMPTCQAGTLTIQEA
Procedure: 96-well polystyrene cell culture plates were coated overnight at 4*C with 50 μL per well of phosphate buffered saline containing 3 μg/ml of recombinant proteins made of the entire extracellular domain of mouse E-selectin, P-selectin or VCAM-1/CD106 fused to the Fc fragment of human IgG1 (muEsel-IgG1Fc, muPsel-IgG1Fc, or muVCAM1-IgG1Fc respectively, from R&D Systems)) as previously described 8. Prior to the experiment, plates were flicked to remove excess coating solution and filled with Hepes buffered saline supplemented with 2% bovine serum albumin to block non-specific adhesion to plastic surfaces. […]
Bone marrow cells from CD44 KO, PSGL1 KO and CD44-PSGL1 double KO mice were stained with FITC-conjugated biotinylated rat monoclonal antibodies specific for CD3, CD5. […] Lineage-negative CD117-positive hematopoietic progenitor cells were then sorted by fluorescence activated cell sorting on an Aria cell sorter (BD Biosciences).
Sorted Lineage-negative CD117-positive hematopoietic progenitor cells when then washed and resuspended in cell adhesion buffer and labelled with the intracellular fluorescent dye calcein-AM (Molecular Probes) for 40 minutes at 37° C. […] The fluorescence contained in the remaining adherent cells was measured on a Fluorostar plate fluorometer following exciting at 488 nm using a 530 nm filter.

[2] = target: T2, recombinant human E-selectin extracellular domain fused with the Fc fragment of human IgM (human, UniProt P16581 22-556); test: flow cytometry: soluble selectin-IgMFc on bone marrow granulocytes of wild-type and knock-out mice
T2 construct: extracellular domain; Used as COS7 supernatant (pCDM8 plasmid); It was pre-complexed with Cy5-conjugated donkey anti-human IgM F(ab)'2 before the assay; also called E-selectin-IgMFc; selectin-IgMFc; not shown: Fc fragment of human IgM
T2 sequence (looked up): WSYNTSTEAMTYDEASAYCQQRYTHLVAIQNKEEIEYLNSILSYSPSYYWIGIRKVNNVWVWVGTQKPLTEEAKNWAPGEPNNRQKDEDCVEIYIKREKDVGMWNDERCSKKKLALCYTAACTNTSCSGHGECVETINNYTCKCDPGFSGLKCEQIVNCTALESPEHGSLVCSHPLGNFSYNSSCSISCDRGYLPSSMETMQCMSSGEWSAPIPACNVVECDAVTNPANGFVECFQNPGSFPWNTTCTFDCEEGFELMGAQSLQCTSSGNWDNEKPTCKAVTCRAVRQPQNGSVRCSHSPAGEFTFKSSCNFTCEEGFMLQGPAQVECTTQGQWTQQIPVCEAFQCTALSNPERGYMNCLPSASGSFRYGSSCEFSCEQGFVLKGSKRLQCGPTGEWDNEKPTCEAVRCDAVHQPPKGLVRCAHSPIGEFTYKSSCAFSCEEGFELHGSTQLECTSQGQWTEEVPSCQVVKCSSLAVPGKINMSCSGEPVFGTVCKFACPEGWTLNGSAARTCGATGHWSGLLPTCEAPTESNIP
Source text: In a second assay, binding of recombinant E-selectin and P-selectin was directly measured in solution by flow cytometry. For this purpose, recombinant human P-selectin or E-selectin extracellular domains fused with the Fc portion of human IgM were used as selectins required prior clustering to bind to their cellular receptors. As IgM are decameric proteins, each fusion recombinant protein is a decamer or either P-selectin or E-selectin. The clustering resulting from decamerization of selectin enables them to directly interact in solution with their cellular receptors. The inventors therefore measured the binding of recombinant selectin-IgM Fc fusion proteins to bone marrow cells isolated from wild-type, PSGL1−/−, CD44−/− or PSGL1−/−CD44−/− double KO mice. Detection by flow cytometry was performed by pre-complexing the selectin-IgMFc fusion proteins with a Cy5-conjubated donkey anti-human IgM antibody. […] Thus these experiments confirm that PSGL1 and CD44 are necessary and sufficient for E-selectin binding to mature granulocytes, hematopoietic stem cells can bind and adhere to E-selectin via alternative receptors which are not encoded by the PSGL1 and C44 genes.
Prior to the experiment, recombinant selectin-IgMFc fusion proteins were complexed with Cy5-conjugated donkey IgG F(ab)′2 fragments anti-human IgM. […]

- binding result [1]: binds
- binding result [2]: binds
B1: P-selectin glycoprotein ligand-1 (mouse, on bone marrow cells) (receptor, UniProt Q62170 42-397, looked up)
chain: QVVGDDDFEDPDYTYNTDPPELLKNVTNTVAAHPELPTTVVMLERDSTSAGTSERATEKIATTDPTAPGTGGTAVGMLSTDSATQWSLTSVETVQPASTEVETSQPAPMEAETSQPAPMEAETSQPAPMEAETSQPAPMEADTSQPAPMEAETSQPAPNEAETSKPAPTEAETSKPAPTEAETTQLPRIQAVKTLFTTSAATEVPSTEPTTMETASTESNESTIFLGPSVTHLPDSGLKKGLIVTPGNSPAPTLPGSSDLIPVKQCLLIILILASLATIFLVCTVVLAVRLSRKTHMYPVRNYSPTEMICISSLLPEGGDGAPVTANGGLPKVQDLKTEPSGDRDGDDLTLHSFLP
notes: whole, on cells; also called PSGL-1; PSGL1

From US20160193294A1 (UNIVERSITY OF QUEENSLAND, published 2016)
